Measured values: patent publication US20180346592A1
Numbering of substitutions follows the chain as printed.

B1: clone GX184 (scFv, V domains shown)
VH: QLQLQESGPGLVKPSETLSLTCAVSGGSISSSNNYWGWIRQPPGKGLEWIGSIFYSGSTYYNPSLKSRVTISVDTSKNQFSLKLSSVTAADTAVYYCARLPTGTPGFYFDYWGQGTLVTVSS
VL: SYELTQPPSVSKGLRQTATLTCTGNSNNVGNQGAAWLQQHQGHPPKLLSYRNNNRPSGISERFSASRSGNTASLTITGLQPEDEADYYCSAWDSSLSAWVFGGGTKLTVLG
B2: clone GN328 (scFv, V domains shown)
VH: EVQLVESGGGLVQPGGSLRVSCAASGFTFSTAWMDWVRQAPGKGLEWVANINPDGSEKHYVDSVKGRFTVSRDNAKNSVYLHMNNLRAEDTAVYYCSKALDYWGQGTTVTVSS
VL: DIQMTQSPSTLSASVGDRVTITCRASQNINTWLAWYQQKPGKAPEVLIYEASSLESGVPPRFSGSGSGTEFTLTISSLQPDDSATYYCQQYNTYSPTFGQGTKLEIKR
B3: clone GN414 (scFv, V domains shown)
VH: QVQLVQSGAEVKKPGASVKVSCKASGYTFSTYGITWVRQAPGQGLEWMGRITPNNGVTDYAQKFQGRVTMTRDTSISTAYMELSSLRSDDSAVYYCAREIGSSSWKLLDPWGQGTMVTVSS
VL: QAVLTQPSSVSVSPGQTASITCTGNSNNVGYEGAAWVQQYQGHPPKLLSDRNHNRPSGISERFSASRSGNTASLTITGLQSEDEADYYCSAWDSSLSEWVSGGGTKLTVLG
B4: clone GX247 (scFv, V domains shown)
VH: QVQLVQSGAEVKKPGASVKVSCKASGYTFTSYYMHWVRQAPGQGLEWMGIINPSGGSTSYAQKFQGRVTMTRDTSTSTVYMELSSLRSEDTAVYYCARTRKGSGYSYGYGMDVWGQGTTVTVSS
VL: SYELTQPPSVSVSPGQTASITCSGDKLGNKYVSWYQQKPGQSPVLVIYQDNKRPSGIPERFSGSNSGNTATLTISGTQAMDEAGYYCQTWDSSVVFGGGTKLTVLG
B5: clone GX263 (scFv, V domains shown)
VH: EVQLVESGGGLVKPGGSLRLSCAASGFTFSSYSMNWVRQAPGKGLEWVSSISSSSSYIYYADSVKGRFTISRDNAKNSLYLQMNSLRAEDTAVYYCARVTPYYYYGMDVWGQGTTVTVSS
VL: QSVVTQPPSVSAAPGQKVTISCSGSSSNIGNNYVSWYQQLPGTAPKLLIYDSNKRPPGIPDRFSGSKSGTSATLGITGLQTGDEADYYCGAWDSSLSAVVFGGGTKLTVLG
B6: clone GS010 (scFv, V domains shown)
VH: EVQLLESGGGLVQPGGSLRLSCAASGFTFSNYSMSWVRQAPGKGLEWVSVISPSSGSIYYADSVKGRFTISRDNSKNTLYLQMNSLRAEDTAVYYCARYRVRQLKHTRSYADAMDVWGQGTLVTVSS
VL: QSVLTQPPSASGAPGQRVTISCSGSSSNIGSNAVSWYQQLPGTAPKLLIYANSHRPSGVPDRFSGSKSGTSASLAISGLRSEDETDYYCASWDSSLSGYVFGGGTKLTVLG
B7: clone GS014 (scFv, V domains shown)
VH: EVQLLESGGGLVQPGGSLRLSCAASGFTFSNYAMSWVRQAPGKGLEWVSVISPNSGSNTYYADSVKGRFTISRDNSKNTLYLQMNSLRAEDTAVYYCARPRILRRRVDHSYSYAMDVWGQGTLVTVSS
VL: B6 VL with A13T, S23T, S31N, A33Y, A51S, T85A, A90G, S91T, S94Y, F101L
B8: clone GS015 (scFv, V domains shown)
VH: EVQLLESGGGLAQPGGSLRLSCAASGFTFSDYSMSWVRQAPGKGLEWVSAISPDGGSKYYADSVKGRFTISRDNSKNTLYLQMNSLRAEDTAVYYCARFRVIKLRAGWYSANGMDVWGQGTLVTVSS
VL: B6 VL with A13T, S31N, A33D, A51Y, H54K, T85A, A90G, S91A, S94D, S97N
B9: clone GS004 (scFv, V domains shown)
VH: EVQLLESGGGLVQPGGSLRLSCAVSGFTFSNYSMSWVRQAPGKGLEWVSAISPGSSNKYYADSVKGRFTISRDNSKNTLYLQMNSLRAEDTAVYYCARYRVWAHSASSSYSNAMDVWGQGTLVTVSS
VL: B6 VL with A13T, S31N, A33D, A51S, N52D, H54Q, T85A, A90G, S94D, S97N
B10: clone GS006 (scFv, V domains shown)
VH: EVQLLESGGGLVQPGGSLRLSCAASGFTFSGYSMSWVRQAPGKGLEWVSAISPGGGSKYYADSVRGRFTVSRDNSKNTLYLQMNSLRAEDTAVYYCARYRVQKSAKNVYSSNGMDVWGQGTLVTVSS
VL: QSVLTQPPPASGTPGQRVTISCSGSSSNIGNNAVNWYQQLPGTAPKLLIYYDSNRPSGVPDRFSGSKSGTSASLAISGLRSEDEADYYCGAWDSSLSAYVFGGGTKLTVLG
B11: clone GS002 (scFv, V domains shown)
VH: EVQLLESGGGLVQPGGSLRLSCAASGFTFSGYSMSWVRQAPGKGLEWVSSISPGGSSTYYADSVKGRFTISRDNSKNTLYLQMSSLRAEDTAVYYCARYRVWHMTTGDYYSNAMDVWGQGTLVTVSS
VL: QSVLTQPPSASGTPGQRVTISCTGSSSNIGSNAVSWYQQLPGTAPKLLIYDDNKRPSGVLDRFSGSKSGTSASLAISGLRSEDEADYYCGTWDDSLSGYVFGGGTKLTVLG

The binders below were run against GPC3 on the surface of hepatic cancer cell lines (SK-Hep1-GPC3 transfectant, HepG2, Huh7, Hep3B, SNU398) (human) (UniProt P51654) (assay: FACS, SK-Hep1-GPC3 #9 cells, 1 ug antibody; lower left panel).

Mean, FL2-H	Binder
3.99	B1
4.17	B2
3.75	B3
6.07	B4
3.71	B5

What follows are binders tested against GPC3 on the surface of hepatic cancer cell lines (SK-Hep1-GPC3 transfectant, HepG2, Huh7, Hep3B, SNU398) (human) (UniProt P51654) (assay: FACS, SK-Hep1-GPC3 #9 cells, 1 ug antibody; upper right panel).

Mean, FL2-H	Binder
4.53	B6
4.39	B7
5.34	B8
4.11	B9
3.65	B10
4.17	B11

Each binder was assayed against GPC3 on the surface of hepatic cancer cell lines (SK-Hep1-GPC3 transfectant, HepG2, Huh7, Hep3B, SNU398) (human) (UniProt P51654) (assay: FACS, HepG2 cells, 1 ug antibody; upper right panel (Synthetic library)).

Mean, FL2-H	Binder
4.72	B6
5.66	B7
3.64	B8
4.38	B9
3.41	B10
4.71	B11

Each binder was assayed against GPC3 on the surface of hepatic cancer cell lines (SK-Hep1-GPC3 transfectant, HepG2, Huh7, Hep3B, SNU398) (human) (UniProt P51654) (assay: FACS, HepG2 cells, 1 ug antibody; lower left panel (Human naive library)).

Mean, FL2-H	Binder
5.39	B1
4.24	B2
6.9	B3
5.53	B4
6.06	B5
